Assay [1] has as its target T1, human B cell maturation antigen (BCMA), full-length, on cells (human, UniProt Q02223 1-184).
T1 construct: also called CD269; TNFRSF17
T1 sequence: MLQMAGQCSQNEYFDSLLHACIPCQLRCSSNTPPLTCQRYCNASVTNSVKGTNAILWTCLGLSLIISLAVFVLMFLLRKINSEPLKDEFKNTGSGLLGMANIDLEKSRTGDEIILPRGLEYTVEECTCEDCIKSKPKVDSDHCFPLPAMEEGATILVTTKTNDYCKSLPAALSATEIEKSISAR
In words: Retrogenix Cell Microarray, proteins expressed in human HEK293 cells.

Assay [2] deals with T1, human B cell maturation antigen (BCMA), …. As to the kind of experiment: FACS titration (Scatchard analysis) on BCMA-expressing human NCI-H929 cells; anti-mouse IgG-A647 detection. The protocol: (§1) Antibodies were generated by immunizing AlivaMab mice with human BCMA and sequenced. The antibody sequences are shown in Table 3, Table 4, Table 5, Table 6, Table 7, and Table 8. […] Antibodies were titrated from 10 nM, with seven 1:5 dilutions. A positive control, mouse anti-human BCMA antibody (Biolegend, cat #357514) was tested in each experiment. Binding readout was measured via secondary detection, using an anti-mouse IgG-A647 nm (dilution 1:10000).

The target is the same in assay [3]. In words: FACS titration (Scatchard analysis) on HEK-293T cells stably expressing full-length human BCMA; anti-mouse IgG-A647 detection. The protocol:
as §1

The target is the same in assay [4]. In words: FACS titration; cells not named in the heading (value equals the NCI-H929 EC50 of 14D14A in Table 2); heading of Table 6; cells not given.

B1: 16M16A scFv (scFv)
scFv: QPVLTQPPSASASLGASVTLTCTLSSGYSNYKVDWYQQRPGKGPRFVMRVGTGGIVGSKGDGIPDRFSVLGSGLNRYLTIKNIQEEDESDYHCGADHGSGSNFVYVFGTGTKVTVLGGGGSGGGGSGGGGSQVQLVQSGTEVKKPGASVKVSCKASGSTFTSFFIHWVRQAPGQGLEWMGLINPSGGGTGYALKFQGRVTMTRDTSTSTVYMELSSLRSEDTAVYFCSRGNYEAFDLWGHGTMVTVSS
notes: VL-(G4S)3-VH
B1: the binding result in assay [1] was “binds”.

B2: Antibody #2 (Clone ID 13I04A) (antibody, V domains shown)
VH: EVQLVESGGGLVQPGGSLRLSCAASGFTSSNYWMSWVRQAPGKGLEWVANIKHDGSEKYFVDSVKGRFTISRDNANNSLYLQMNSLRDEDTAVYYCARMRPWYYDLWGRGTLVTVSS
VL: not shown
notes: Raised in AlivaMab mice immunised with human BCMA and purified on protein A. Detected with anti-mouse IgG; also called 13104A
One may read the EC50 as the midpoint of the concentration-response curve. Low readings indicate an effect from little substance, high ones a need for much substance. With B2, the EC50 amounted to 0.189 nM in assay [2] and 0.037 nM in assay [3].

B3: Antibody #4 (Clone ID 14D14A_C) (antibody, V domains shown)
VH: QVQLQESGPGLVKPSETLSLTCTVSGGSISSYYWCWIRQSAGKGLEWIGRMYTSGSTNYNPSLKSRVTMSVDTSKNQFSLKLTSVTAADTAVYYCARERGYYYGGGGWIDPWGQGTLVTVSS
VL: not shown
notes: Same VL as 14D14A; The VH differs in Kabat CDR-H1 (SYYWC)
Regarding B3, it took 0.827 nM to reach a half-maximal effect in assay [4] (EC50). That is a sub-nanomolar value.

B4: Antibody #4 (Clone ID 14D14A) (antibody, V domains shown)
VH: QVQLQESGPGLVKPSETLSLTCTVSGGSISSYYWCWIRQSAGKGLEWIGRMYTSGSTNYNPSLKSRVTMSVDTSKNQFSLKLTSVTAADTAVYYCARERGYYYGGGGWIDPWGQGTLVTVSS
VL: not shown
notes: That clone differs in Kabat CDR-H1 (SYYWC against SYYWS)
Regarding B4, the concentration giving a half-maximal response (EC50) in assay [2] came to 0.827 nM; in assay [3], 0.172 nM.

B5: 01P08A scFv (scFv)
scFv: QPVLTQPPSASASLGASVTLTCTLSSGYSNYKVDWYQQRPGKGPRFVMRVGTGGIVGSKGDGIPDRFSVLGSGLIRYLTIKNIQEEDESDYHCGADHGSGNNFVYVFGTGTKVTVLGGGGSGGGGSGGGGSQVQLQESGPGLVKPSETLSLTCIVSGGSISSYYWNWIRQPAGKGLEWIGRIYKSGNNIYNPSLQSRVTMSLDTSKNQFSLKLSSVTAADTAVYYCADGGNYFDWFDPWGQGTLVIVSS
notes: VL-(G4S)3-VH
As to B5, the binding result in assay [1] was “binds”.

B6: 13L15A scFv (scFv)
scFv: QPVLTQPPSASASLGASVTLTCTLSSGYSNYRVDWYQQRPGKGPRFVMRVGTGGIVGSKGDGIPDRFSVLGSGLNRYLTIKNIQEEDESDYHCGADHGSGSNFVWVFGGGTKLTVLGGGGSGGGGSGGGGSQAQLVQSGAEVKRPGASVKVSCKASGYTFISYLLHWVRQAPGQGLEWMVIINPSVGSTSYAQKFQGRVTMTRDTSTSTLYMELSSLRSEDTAVYYCARSSRNYWDGAFDIWGQGTMVTVSS
notes: VL-(G4S)3-VH
B6: the binding result in assay [1] is listed as “binds”.

B7: 13I04A scFv (scFv)
scFv: DIVMTQSPDSLAVSLGERATINCKSSQSVLYSSYNKNYLAWYQQKPGQPPKILIYWASTRESGVPDRFTGSGSGTDFTLTISSLQAEDVAVYYCQQYYSTMYSFGQGTKLEIKGGGGSGGGGSGGGGSEVQLVESGGGLVQPGGSLRLSCAASGFTSSNYWMSWVRQAPGKGLEWVANIKHDGSEKYFVDSVKGRFTISRDNANNSLYLQMNSLRDEDTAVYYCARMRPWYYDLWGRGTLVTVSS
notes: VL-(G4S)3-VH
Consider B7, for which, in assay [1], the binding result is on record as “binds”.

B8: Antibody #1 (Clone ID 01P08A) (antibody, V domains shown)
VH: QVQLQESGPGLVKPSETLSLTCIVSGGSISSYYWNWIRQPAGKGLEWIGRIYKSGNNIYNPSLQSRVTMSLDTSKNQFSLKLSSVTAADTAVYYCADGGNYFDWFDPWGQGTLVIVSS
VL: QPVLTQPPSASASLGASVTLTCTLSSGYSNYKVDWYQQRPGKGPRFVMRVGTGGIVGSKGDGIPDRFSVLGSGLIRYLTIKNIQEEDESDYHCGADHGSGNNFVYVFGTGTKVTVL
notes: Raised in AlivaMab mice immunised with human BCMA and purified on protein A. Detected with anti-mouse IgG
For B8, the concentration for a half-maximal effect (EC50) in assay [2] is 3.79 nM; in assay [3], 1.03 nM.

B9: Antibody #5 (Clone ID 16M16A) (antibody, V domains shown)
VH: QVQLVQSGTEVKKPGASVKVSCKASGSTFTSFFIHWVRQAPGQGLEWMGLINPSGGGTGYALKFQGRVTMTRDTSTSTVYMELSSLRSEDTAVYFCSRGNYEAFDLWGHGTMVTVSS
VL: QPVLTQPPSASASLGASVTLTCTLSSGYSNYKVDWYQQRPGKGPRFVMRVGTGGIVGSKGDGIPDRFSVLGSGLNRYLTIKNIQEEDESDYHCGADHGSGSNFVYVFGTGTKVTVL
notes: as for B8
Consider B9, for which the EC50 in assay [2] stood at 0.188 nM; in assay [3] it was 0.04 nM.

B10: Antibody #3 (Clone ID 13L15A) (antibody, V domains shown)
VH: QAQLVQSGAEVKRPGASVKVSCKASGYTFISYLLHWVRQAPGQGLEWMVIINPSVGSTSYAQKFQGRVTMTRDTSTSTLYMELSSLRSEDTAVYYCARSSRNYWDGAFDIWGQGTMVTVSS
VL: QPVLTQPPSASASLGASVTLTCTLSSGYSNYRVDWYQQRPGKGPRFVMRVGTGGIVGSKGDGIPDRFSVLGSGLNRYLTIKNIQEEDESDYHCGADHGSGSNFVWVFGGGTKLTVL
notes: as for B8
Turning to B10, the EC50 in assay [2] was found to be 0.235 nM; in assay [3] it was 0.051 nM.

Values taken from patent publication US20260207747A1 (ARTIVA BIOTHERAPEUTICS, published 2026).
